Test results as given in the supplement of paper PMC10567573.

B1: TRAF3IP2 (parent)
chain: KEHVPTWLQNTHVYSWPKNKKNIL

Variants of: B1
Assay: protein stability index of a GFP-peptide fusion (GPS, HEK-293T) (PSI 1-6); higher = more stable
Conditions: c terminus: a fixed tail appended
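Note: lentivirally expressed fusions sorted by FACS into six bins by GFP to DsRed ratio, PSI derived from sequencing read proportions per bin multiplied by bin number.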

Variant | protein stability index
KEYVPTWLQNTHVYSWPKNKKNIL [H3Y] | 2.03
KEGVPTWLQNTHVYSWPKNKKNIL [H3G] | 3.19
KERVPTWLQNTHVYSWPKNKKNIL [H3R] | 2.21
KEDVPTWLQNTHVYSWPKNKKNIL [H3D] | 2.85
KEWVPTWLQNTHVYSWPKNKKNIL [H3W] | 2.02
KEEVPTWLQNTHVYSWPKNKKNIL [H3E] | 2.51
KEVVPTWLQNTHVYSWPKNKKNIL [H3V] | 2.69
KECVPTWLQNTHVYSWPKNKKNIL [H3C] | 2.42
KEHVPTWLQQTHVYSWPKNKKNIL [N10Q] | 2.32
KEHVPTWLQPTHVYSWPKNKKNIL [N10P] | 2.64
KEHVPTWLQLTHVYSWPKNKKNIL [N10L] | 2.03
KEHVPTWLQRTHVYSWPKNKKNIL [N10R] | 2.09
KEHVPTWLQATHVYSWPKNKKNIL [N10A] | 2.34
KEHVPTWLQITHVYSWPKNKKNIL [N10I] | 1.79
KEHVPTWLQMTHVYSWPKNKKNIL [N10M] | 2.25
KEHVPTWLQTTHVYSWPKNKKNIL [N10T] | 2.85
KEHVPTWLQKTHVYSWPKNKKNIL [N10K] | 2.04
KEHVPTWLQDTHVYSWPKNKKNIL [N10D] | 3.02
KEHVPTWLQGTHVYSWPKNKKNIL [N10G] | 2.07
KEHVPTWLQHTHVYSWPKNKKNIL [N10H] | 2.48
KEHRPTWLQNTHVYSWPKNKKNIL [V4R] | 2.69
KEHFPTWLQNTHVYSWPKNKKNIL [V4F] | 2.07
KEHGPTWLQNTHVYSWPKNKKNIL [V4G] | 2.81
KEHIPTWLQNTHVYSWPKNKKNIL [V4I] | 1.74

Variant | protein stability index
KEHQPTWLQNTHVYSWPKNKKNIL [V4Q] | 3.54
KEHKPTWLQNTHVYSWPKNKKNIL [V4K] | 2.43
KEHSPTWLQNTHVYSWPKNKKNIL [V4S] | 2.77
KEHMPTWLQNTHVYSWPKNKKNIL [V4M] | 2.35
KEHHPTWLQNTHVYSWPKNKKNIL [V4H] | 2.25
KEHWPTWLQNTHVYSWPKNKKNIL [V4W] | 1.93
KEHDPTWLQNTHVYSWPKNKKNIL [V4D] | 3.29
KEHYPTWLQNTHVYSWPKNKKNIL [V4Y] | 2.27
KEHCPTWLQNTHVYSWPKNKKNIL [V4C] | 1.87
KEHVPTWLQNTHVYSWPKAKKNIL [N19A] | 2.81
KEHVPTWLQNTHVYSWPKQKKNIL [N19Q] | 2.51
KEHVPTWLQNTHVYSWPKPKKNIL [N19P] | 2.43
KEHVPTWLQNTHVYSWPKMKKNIL [N19M] | 1.97
KEHVPTWLQNTHVYSWPKVKKNIL [N19V] | 2.34
KEHVPTWLQNTHVYSWPKRKKNIL [N19R] | 2.3
KEHVITWLQNTHVYSWPKNKKNIL [P5I] | 1
KEHVATWLQNTHVYSWPKNKKNIL [P5A] | 2.66
KEHVSTWLQNTHVYSWPKNKKNIL [P5S] | 2.47
KEHVLTWLQNTHVYSWPKNKKNIL [P5L] | 1.73
KEHVVTWLQNTHVYSWPKNKKNIL [P5V] | 2.24
KEHVCTWLQNTHVYSWPKNKKNIL [P5C] | 1.96
KEHVMTWLQNTHVYSWPKNKKNIL [P5M] | 2.27
KEHVPTWLQNTHVYSWPKNKTNIL [K21T] | 2.65
KEHVPTWLQNTHVYSWPKNKQNIL [K21Q] | 2.27

Variant | protein stability index
KEHVPTWLQNTHVYSWPKNKINIL [K21I] | 2.12
KEHVPTWLQNTHVYSWPKNKRNIL [K21R] | 2.05
KEHVPTWLQNTHVYSWPKNKVNIL [K21V] | 2.03
KEHVPTWLQNTHVYSWPKNKYNIL [K21Y] | 1.83
KEHVPTWLQNTHVYSWPKNKCNIL [K21C] | 2.3
KEHVPTWLQNTHVYSWPKNKSNIL [K21S] | 2.24
KEHVPTWLQNTHVYSWPKNKMNIL [K21M] | 1.95
CEHVPTWLQNTHVYSWPKNKKNIL [K1C] | 2.26
IEHVPTWLQNTHVYSWPKNKKNIL [K1I] | 1.94
QEHVPTWLQNTHVYSWPKNKKNIL [K1Q] | 2.67
YEHVPTWLQNTHVYSWPKNKKNIL [K1Y] | 1.93
NEHVPTWLQNTHVYSWPKNKKNIL [K1N] | 3.12
KEHVPTWLQNTHVYHWPKNKKNIL [S15H] | 2.27
KEHVPTWLQNTHVYGWPKNKKNIL [S15G] | 2.99
KEHVPTWLQNTHVYIWPKNKKNIL [S15I] | 1.7
KEHVPTWLQNTHVYQWPKNKKNIL [S15Q] | 2.49
KEHVPTWLQNTHVYNWPKNKKNIL [S15N] | 2.21
KEHVPTWLQNTHVYMWPKNKKNIL [S15M] | 2.23
KEHVPTWLQNTHVYYWPKNKKNIL [S15Y] | 2.27
KEHVPTWLQNTHVYWWPKNKKNIL [S15W] | 1.68
KEHVPTWLQNTKVYSWPKNKKNIL [H12K] | 2.51
KEHVPTWLQNTAVYSWPKNKKNIL [H12A] | 2.86
KEHVPTWLQNTLVYSWPKNKKNIL [H12L] | 1.79
KEHVPTWLQNTPVYSWPKNKKNIL [H12P] | 2.94

Variant | protein stability index
KEHVPTWLQNTMVYSWPKNKKNIL [H12M] | 2.42
KEHVPTWLQNTGVYSWPKNKKNIL [H12G] | 2.8
KEHVPTWLQNSHVYSWPKNKKNIL [T11S] | 2.88
KEHVPTWLQNPHVYSWPKNKKNIL [T11P] | 2.67
KEHVPTWLQNKHVYSWPKNKKNIL [T11K] | 2.57
KEHVPTWLQNIHVYSWPKNKKNIL [T11I] | 2.55
KEHVPTWLQNVHVYSWPKNKKNIL [T11V] | 2.52
KEHVPTWLQNHHVYSWPKNKKNIL [T11H] | 2.38
KEHVPTWLQNFHVYSWPKNKKNIL [T11F] | 2.53
KEHVPTWLQNRHVYSWPKNKKNIL [T11R] | 2.54
KEHVPTWLQNTHVYSWCKNKKNIL [P17C] | 2.36
KEHVPTWLQNTHVYSWGKNKKNIL [P17G] | 2.17
KEHVPTWLQNTHVYSWHKNKKNIL [P17H] | 2.21
KEHVPTWLQNTHVYSWFKNKKNIL [P17F] | 2.18
KEHVPTWLQNTHVYSWQKNKKNIL [P17Q] | 2.95
KEHVPTWLQNTHVYSWPKNKKNIY [L24Y] | 2.51
KEHVPTWLQNTHVYSWPKNKKNIW [L24W] | 1.86
KEHVPTWLQNTHVYSWPKNKKNIC [L24C] | 2.69
KEHVPTWLQNTHVYSWPKNKKNIM [L24M] | 2.73
KEHVPTWLQNTHVYSWPKNKKNIN [L24N] | 3.08
KEHVPTWLQNTHVYSWPKNKKNIF [L24F] | 2.2
KEHVPTWLQNTHVYSWPKNKKNSL [I23S] | 2.94
